Assay results published in the domain aggregation screens of Martell et al. (2025).

Test: soluble fraction after stress (log2 fold change); higher = more stays soluble; pooled small domains, quantitative proteomics
Details: stress: 50 degC
Method in brief: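 Pooled custom libraries of small protein domains were each held under stress at 50°C. The read-out, high-throughput quantitative proteomics, tracked how much of each protein stayed soluble. This is reported as a base-two log fold change used to indicate aggregation propensity. Higher values mean more protein remains in solution.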

Sequence	soluble fraction (log2)
HMEQIFTELIMDGRVLGENLHRMGVDETWLLRQLRQQGYHSAREVFLAVADANKQVAVYPVS	-0.308
HMAIKWTPEIEDEVSNKLKEKWSPEQISAWLKKNKSIMISHQRIYQFIVEDKMSGGNLYRNLRQ	-0.695
HMKIHNSIREITDFDRKQNSNIPSDAKYRIVFYTPQGNKTIIPEELQGLQYYRSKELAEIALNKKLNSN	-0.132
HMTVSIGSVIARERRLRGDTQQELAERLGVSKAAVSKWEVGQSIPDVTLLPRIAAYFSLTLDEL	-2.18
HMILNDRSELLDVVKRVIAANPASVADYRKGKKKVLGFLVGQAMKETKGQADPRILNELFLQELGEN	0.0223
HMGSFTDKQIKQAFGVLNDPRFKQGNYDGAVAVINKIAPGLADHPSVANALKRANEATQDIAQQTQA	0.161
HMDLPRQSQYQALVVSYARRAGIDEAEEDLLAAFEVWRMRHNHDLAGGRTARDFILAYLPQYQRHKE	-1.63
HMRKRLLQLVHIGKSQLGMDDETYRSLLSQQFYQNSAKNISYSELVKLVKILQQKGAKIRLPH	-1.9
HMEAEPRLLDLPPGTRAGRLDKVLAQLLPEHSRSRLQGWIERGGVLVNGKEASVRQVVGPGDQLTVWEEAA	-0.0918
HMKSSISKNWNPSKDAIEILTRAGIDQEFLENLIPEFVIYWIERSDVLISYNSKFIEHARLKWAQHTAEIQ	-0.0223
HMGIEIKLLMSFMTDSGRKVSLFVTDPREDVTETEIKQVMDLIIEKNIFAPNGEDIVSAKEAKIVQT	-1.25
HMDKTTIKNEQKKQILIFAEMNLFFKAKDVAELLGLQASRARYLLQELVKDGKIQGIGNNKGRKYQLI	-0.438
HMDQVYYDLKSLIELLPADQMEVLKMRYFEELSFKKIAQKIDVSINTALGRMRYALINLRALSKKHHID	-0.189
HMDSLSGQQGRVLEEINGFLQTGKVLLNGMEWSAVSKQPEDILPVDTEVVVVRVEGAHLVVKKA	0.0592
HMENDGQFLRAEREKYGLTLTDIYEHTHIPIKKLKAYEMWEEEMPPRTRALLELYFDQVAFEYDS	-0.8
HMQISDVSLIAKVIDDVIDNNVKSVSDYLEGNLNVLRFLVGQVMKETKGKANPQKATELLQEKLESLNN	-0.429
HMDFDPDVPSREDILQAFRDSKPPLTVNALISEFGLSRDASIVGLERRMGAMQRDGQLEQTPSGWQLSV	-0.158
HMTALPPNVSIDSDERRLLEAIGFDPVDMDVLARDGQFSSVDLFRLLVSLELKGLVENQHGAYQRL	-1.31
HMTVGEKIQKYRKDLDLSQEELGQKLLVSRQTISLWEKDQTVPTIDNLIRLREIFGVSVDEILGF	-0.409

Sequence	soluble fraction (log2)
HMDSKPNDLLFVYVSQLIRSLTLNSSKKDSELADELEVSISQIRIWLKKLINEQLIVKESKPVKYRWKG	-2.95
HMAVPLVRGTVTSSVGTVLLLSVGERDFFLSEGEEKDGVLLQSLSEKSAVVVVSGRAYTLSL	-0.408
HMLPELQPGQTFSARIQQALPDNTYRALVAGKQLTLQLPEGAKAGDELELVVLDRSARVIIARQVD	-0.146
HMAPKSALKIIEQISNNPRATMTDLANLTGYSRRWVAQTIKRLQEENIIKRIGSDKSGYWEIIG	-0.321
HMGPTPTSAQLTEAKRLRTKLDDLNPELAERLWSEHREPYTETQYQTLIEKLAAEVQSAEGEIGR	0.182
HMSTSRAEIIAFLKSNPSSEYKHELETKLDEMDWAEAVKGNSEESFLAYKQRQPNGTHNGEADEKLKVLLV	0.191
HMDKRYYYRILGLVGEPTRDQIEAAYETRIAKLRSSDYGDDPLYARRKISEVTMAYKVLTGS	-0.281
HMELQYSQEIEEAQKILENLGLYRGEIDGINGINTKSAIREFQRKSGLVVDGILGPNTTNALSKGSDAYIT	0.094
HMKEQYDLNDREQQFISLVANGLNNKEIAETLFLSEGTVRNYLSNLLDKLGLRDRTQLAIFFYQHL	-0.953
HMKVLNVLESEIVRLFKQGQQKDNIRDNIYKTHGQHYNNKKSFNVVFGRKWNSLLEQGFLES	-0.595
HMQPIEIQDRITKAFERSAALEAKNINVEVDGHTVKLTGTVHSLTEKEEARKAAFFAPGVTKVENHLIVDY	0.0426
HMRESRLFQILYQLLTKKKVTAANLAKQFEVSVRTIYRDIDALSSSGIPIYASQGKNGGIQLDEDF	-1.11
HMLQKEVHQQIQQALRALPYHQRTAIVLYYYEGMSVKEIAQATGSMQGTVQSRLFFARKKLRPILESILKK	-0.453
HMRATLTDETARVVQEPTSESISLTSLRKGEEFEIGKVIRKKKEVWVTVTTSSGVKGYISGDTHIF	-0.0573
HMSVDVEGNQRIPTEQVLSELRDVGVSFGKRVSGLNADTIRNQMIINNDEIAWLGVNVRGSRVYVEITERI	-0.018
HMSVPSLVGKTDSEAQSAIKSAGLKVGTVTYQYSDETEKGYVVSQSPYSGNKVNAGSTVNIVVSKGK	-0.0367
HMDTLRPLGRYQNVHLTKQELTALQSEFSDWSERIERLSSYMASTGRKYQNHAATIRLWAEKDK	0.13
HMDSTLDLVATQGGRLDQVLAEMIPEHSRNRLQHWIKAGRVLVDGQPVLEPKHKIYGGEDLAVRVD	0.278
